{
  "source": "the MegaScale stability set (Tsuboyama et al. 2023)",
  "parents": {"B1": {"name": "EEHEE_rd4_0647 (parent)", "chain": "MQVTWGNVTVTFSNPEEAKKYAEKVARKLGGQVELHNGQFRIK"}},
  "data": [
    {"variants_of": "B1", "test": "folding stability dG (cDNA display proteolysis); higher = more stable", "conditions": "PBS, room temperature", "units": {"folding stability dG": "kcal/mol"}, "values": [
      {"variant": "MQVTWGNVTVTFSNPEEAKKYAEKVARKLGGQVELDNGQFRIK", "note": "[H36D]", "folding stability dG": 2.53},
      {"variant": "MQWTWGNVTVTFSNPEEAKKYAEKVARKLGGQVELHNGQFRIK", "note": "[V3W]", "folding stability dG": 0.9},
      {"variant": "MQVTWGQVTVTFSNPEEAKKYAEKVARKLGGQVELHNGQFRIK", "note": "[N7Q]", "folding stability dG": 2.49},
      {"variant": "MQVTWGNVTVTFSNPEEWKKYAEKVARKLGGQVELHNGQFRIK", "note": "[A18W]", "folding stability dG": 1.08},
      {"variant": "MQVTWGNVTVTFSNPEEFKKYAEKVARKLGGQVELHNGQFRIK", "note": "[A18F]", "folding stability dG": 1.05},
      {"variant": "MQVTWGNVTVTFSNPETAKKYAEKVARKLGGQVELHNGQFRIK", "note": "[E17T]", "folding stability dG": 2.74},
      {"variant": "MQVTWGNVTVTFSNPEAAKKYAEKVARKLGGQVELHNGQFRIK", "note": "[E17A]", "folding stability dG": 2.93},
      {"variant": "MNVTWGNVTVTFSNPEEAKKYAEKVARKLGGQVELHNGQFRIK", "note": "[Q2N]", "folding stability dG": 2.49},
      {"variant": "MDVTWGNVTVTFSNPEEAKKYAEKVARKLGGQVELHNGQFRIK", "note": "[Q2D]", "folding stability dG": 2.46},
      {"variant": "MQVTWGNVTVTFSNPEEAKKYAEKVARKLGGQVEAHNGQFRIK", "note": "[L35A]", "folding stability dG": 2.09},
      {"variant": "MQVTWGNVEVTFSNPEEAKKYAEKVARKLGGQVELHNGQFRIK", "note": "[T9E]", "folding stability dG": 1.46},
      {"variant": "MQVTWGNVPVTFSNPEEAKKYAEKVARKLGGQVELHNGQFRIK", "note": "[T9P]", "folding stability dG": 0.422},
      {"variant": "MQVTWGNVTVTFSNPEEAKKYAEKVARKLGGQVELHNGQFRID", "note": "[K43D]", "folding stability dG": 1.93},
      {"variant": "MQVTWGNVTVTFSNPEEAKKYAEKVARKCGGQVELHNGQFRIK", "note": "[L29C]", "folding stability dG": 2.92},
      {"variant": "MQVTWGNVTVTFSNPEEAKKYAEKVARKMGGQVELHNGQFRIK", "note": "[L29M]", "folding stability dG": 2.51},
      {"variant": "MQVTWGNVTVTFSNPEEAKKYAEKVARKLGGQVELHNPQFRIK", "note": "[G38P]", "folding stability dG": 0.661},
      {"variant": "MQVTWGNVTVTFSNPEEAKKYAEKVARKLGGQVELHNFQFRIK", "note": "[G38F]", "folding stability dG": 1.73},
      {"variant": "MQVTWGNVTVTFSNPEEAKKYAEKVARKLGGQVELHNNQFRIK", "note": "[G38N]", "folding stability dG": 2.46},
      {"variant": "MQVTWGNVTVRFSNPEEAKKYAEKVARKLGGQVELHNGQFRIK", "note": "[T11R]", "folding stability dG": 2.62},
      {"variant": "MQVTWGNVTVSFSNPEEAKKYAEKVARKLGGQVELHNGQFRIK", "note": "[T11S]", "folding stability dG": 2.73},
      {"variant": "MQVTWGNRTVTFSNPEEAKKYAEKVARKLGGQVELHNGQFRIK", "note": "[V8R]", "folding stability dG": 2.5},
      {"variant": "MQVTWGNATVTFSNPEEAKKYAEKVARKLGGQVELHNGQFRIK", "note": "[V8A]", "folding stability dG": 1.89},
      {"variant": "MQVTWGNVTVTFSNPEEAKKYAEKVARKLRGQVELHNGQFRIK", "note": "[G30R]", "folding stability dG": 2.41},
      {"variant": "MQVTWGNVTVTFSNPEEAKKYAEKVARKLGGAVELHNGQFRIK", "note": "[Q32A]", "folding stability dG": 2.52},
      {"variant": "MQVTWGNVTCTFSNPEEAKKYAEKVARKLGGQVELHNGQFRIK", "note": "[V10C]", "folding stability dG": 3.62},
      {"variant": "MQVTWGNVTVTFSNPEEAKKYAEKVARKLGGQVELHNGQFRPK", "note": "[I42P]", "folding stability dG": 0.784},
      {"variant": "MQVTWGNVTVTFSNPEEAKKYAEKVARKLGGQVELHNGQFRAK", "note": "[I42A]", "folding stability dG": 0.487},
      {"variant": "MQVTWGNVTVTFSNPEEALKYAEKVARKLGGQVELHNGQFRIK", "note": "[K19L]", "folding stability dG": 3.02},
      {"variant": "MQVTWGNVTVTFSNPLEAKKYAEKVARKLGGQVELHNGQFRIK", "note": "[E16L]", "folding stability dG": 2.78},
      {"variant": "MQVTWGNVTVTFSNPEEAKKYAEKVAWKLGGQVELHNGQFRIK", "note": "[R27W]", "folding stability dG": 2.3},
      {"variant": "MQVTWGNVTVTFSNPEEAKKYAEKVATKLGGQVELHNGQFRIK", "note": "[R27T]", "folding stability dG": 2.31},
      {"variant": "MQVTWGNVTVTFSNPEEAKKYAEKVAVKLGGQVELHNGQFRIK", "note": "[R27V]", "folding stability dG": 2.36},
      {"variant": "MQVTGGNVTVTFSNPEEAKKYAEKVARKLGGQVELHNGQFRIK", "note": "[W5G]", "folding stability dG": 0.431},
      {"variant": "MQVTWFNVTVTFSNPEEAKKYAEKVARKLGGQVELHNGQFRIK", "note": "[G6F]", "folding stability dG": 2.55},
      {"variant": "MQVTWGNVTVTFSNPEEAKKYAEKVARKLGGQVELHNGQERIK", "note": "[F40E]", "folding stability dG": 0.453},
      {"variant": "MQVTWGNVTVTFSNPEEAKKYAEKVARKLGGQVELHNGQIRIK", "note": "[F40I]", "folding stability dG": 2.49},
      {"variant": "MQVTWGNVTVTFSNPEEAKKYAEKVARKLGGQVELHNGQARIK", "note": "[F40A]", "folding stability dG": 0.89},
      {"variant": "MQVTWGNVTVTFSNPEEAKKYAEKVARKLGGQVELHNGQRRIK", "note": "[F40R]", "folding stability dG": 0.666},
      {"variant": "MQVTWGNVTVTFSNPEEAKYYAEKVARKLGGQVELHNGQFRIK", "note": "[K20Y]", "folding stability dG": 2.43},
      {"variant": "MQVTWGNVTVTFSNPEEAKKYAEKVWRKLGGQVELHNGQFRIK", "note": "[A26W]", "folding stability dG": 1.17},
      {"variant": "MQVTWGNVTVTFSNPEEAKKYAEKVARKLGGQVELHNGHFRIK", "note": "[Q39H]", "folding stability dG": 2.93},
      {"variant": "MQVTWGNVTVTFSNPEEAKKYAEKVARKLGGQVELHNGKFRIK", "note": "[Q39K]", "folding stability dG": 2.43},
      {"variant": "MQVTWGNVTVTFSNPEEAKKYAEKFARKLGGQVELHNGQFRIK", "note": "[V25F]", "folding stability dG": 1.79},
      {"variant": "MQVTWGNVTVTFSNPEEAKKYAEKEARKLGGQVELHNGQFRIK", "note": "[V25E]", "folding stability dG": 0.927},
      {"variant": "MQVTWGNVTVTFSNPEEAKKYAEKVARKLGGQVELHWGQFRIK", "note": "[N37W]", "folding stability dG": 1.32},
      {"variant": "MQVTWGNVTVTFSNPEEAKKYAEGVARKLGGQVELHNGQFRIK", "note": "[K24G]", "folding stability dG": 2.37},
      {"variant": "MQVTWGNVTVTFSNPEEAKKYAELVARKLGGQVELHNGQFRIK", "note": "[K24L]", "folding stability dG": 2.93},
      {"variant": "MQVTWGNVTVTFSNPEEAKKYAEKVARKLGGQVALHNGQFRIK", "note": "[E34A]", "folding stability dG": 1.94},
      {"variant": "MQVTWGNVTVTFSNPEEAKKYAEKVARKLGGQVPLHNGQFRIK", "note": "[E34P]", "folding stability dG": 0.384},
      {"variant": "WQVTWGNVTVTFSNPEEAKKYAEKVARKLGGQVELHNGQFRIK", "note": "[M1W]", "folding stability dG": 3.72},
      {"variant": "KQVTWGNVTVTFSNPEEAKKYAEKVARKLGGQVELHNGQFRIK", "note": "[M1K]", "folding stability dG": 2.27},
      {"variant": "MQVTWGNVTVTFSNPEEAKKYAEKVARKLGGQVELHNGQFSIK", "note": "[R41S]", "folding stability dG": 2.11},
      {"variant": "MQVTWGNVTVTFSNPEEAKKYAEKVARKLGGQVELHNGQFWIK", "note": "[R41W]", "folding stability dG": 3.15},
      {"variant": "MQVTWGNVTVTFSNPEEAKKYAEKVARKLGGQVELHNGQFHIK", "note": "[R41H]", "folding stability dG": 3.02},
      {"variant": "MQVTWGNVTVTFSNPEEAKKYAEKVARKLGGQVELHNGQFAIK", "note": "[R41A]", "folding stability dG": 2.05},
      {"variant": "MQVYWGNVTVTFSNPEEAKKYAEKVARKLGGQVELHNGQFRIK", "note": "[T4Y]", "folding stability dG": 2.21},
      {"variant": "MQVVWGNVTVTFSNPEEAKKYAEKVARKLGGQVELHNGQFRIK", "note": "[T4V]", "folding stability dG": 3.15},
      {"variant": "MQVTWGNVTVTFSNYEEAKKYAEKVARKLGGQVELHNGQFRIK", "note": "[P15Y]", "folding stability dG": 3.5},
      {"variant": "MQVTWGNVTVTFSNPEEAKKYAEKVARKLGCQVELHNGQFRIK", "note": "[G31C]", "folding stability dG": 2.79}
    ]}
  ]
}
